Results taken from patent US20150307625A1 (Bayer, published 2015).

B1: C22J13 Fab (Fab, V domains shown)
VH: EVQLLESGGGLVQPGGSLRLSCAASGFTFSSNYMSWVRQAPGKGLEWVAVISYDGSNKYYADSVKGRFTISRDNSKNTLYLQMNSLRAEDTAMYYCALTGRSGWMRFPNWFDPWGQGTLVTVTS
VL: QSVLTQPPSASGTPGQRVTISCSGSDSNIGSNAVNWYQQLPGTAPKLLIYDNNKRPSGVPDRFSGSKSGTSASLAISGLRSEDEADYYCSSYTSSNTVVFGGGTKLTVLG
notes: Human Fab (lambda) from a phage library, expressed in E. coli
B2: C26B9 Fab (Fab, V domains shown)
VH: EVQLLESGGGLVQPGGSLRLSCAASGFTFSSYGMHWVRQAPGKGLEWVSVIYSGGSTYYADSVKGRFTISRDNSKNTLYLQMNSLRAEDTAVYYCARMGRAFDIWGQGTLVTVTS
VL: QSVLTQPPSASGTPGQRVTISCSGSSSNIRSNTVNWYQQLPGTAPKLLIYGNSNRPSGVPDRFSGSKSGTSASLAISGLRSEDEADYYCQSYDSSLSGDVVFGGGTKLTVLG
notes: as for B1
B3: T46P19 Fab (Fab, V domains shown)
VH: EVQLLESGGGLVQPGGSLRLSCAASGFTFSGYGMHWVRQAPGKGLEWVSGINWNGGSTGYADSVKGRFTISRDNSKNTLYLQMNSLRAEDTAVYYCARNRATRSGYYYFDSWGQGTLVTVTS
VL: LTQPPSASGTPGQRVTISCTGSSSNIGAGYDVHWYQQLPGTAPKLLIYGNINRPSGVPDRFSGSKSGTSASLAISGLRSEDEADYYCSSYTRSATLVFGGGTKLTVLG
notes: Human Fab (lambda), expressed in E. coli
B4: R41C17 Fab (Fab, V domains shown)
VH: EVQLLESGGGLVQPGGSLRLSCAASGFTFSNYAMSWVRQSPGKGLEWVAVISYDGREKYYSDSVKGRFTISRDNSKNTLYLQMNSLRAEDTAVYYCARDRGRTFDYWGQGTLVTVTS
VL: LTQPPSASGTPGQRVTISCTGSSSNIGAGYVVHWYQQLPGTAPKLLIYRNNHRPSGVPDRFSGSKSGTSASLAISGLRSEDEADYYCAAWDDSLNGRVFGGGTKLTVLG
notes: Human Fab (lambda), expressed in E. coli; also called R4117
B5: C7A23 Fab (Fab, V domains shown)
VH: EVQLLESGGGLVQPGGSLRLSCAASGFTFGNHWMTWVRQAPGKGLEWVSGVSWNGSRTHYADSVKGRFTISRDNSKNTLYLQMNSLRAEDTAVYYCALTGRSGWMRFPNWFDPWGQGTLVTVTS
VL: QSVLTQPPSASGTPGQRVTISCSGSSSNIGNNYVSWYQQLPGTAPKLLIYRNNQRPSGVPDRFSGSKSGTSASLAISGLRSEDEADYYCQSYDSDLSGPYVLFGGGTKLTVLG
notes: as for B1
B6: C26B9 hIgG1 (antibody, V domains shown)
VH: B2 VH
VL: B2 VL
B7: O3E7 hIgG1 (antibody, V domains shown)
VH: EVQLLESGGGLVQPGGSLRLSCAASGFTFSSYSMNWVRQAPGKGLEWVSAISGSGGSTYYADSVKGRFTISRDNSKNTLYLQMNSLRAEDTAVYYCARDRRVRGIYDAFDMWGQGTLVTVTS
VL: QSVLTQPPSTSGTPGQRVTISCTGSSSNIGAGFDVHWYQQLPGTAPKLLIYGNSNRPSGVPDRFSGSKSGTSASLAISGLRSEDEADYYCATWQDTLTGWMFGGGTKLTVLG
notes: also called O3E7-IgG; 03E7
B8: T46P19 hIgG1 (antibody, V domains shown)
VH: B3 VH
VL: B3 VL
B9: R41C17 hIgG1 (antibody, V domains shown)
VH: B4 VH
VL: B4 VL

Each binder was assayed against T1, human activated Protein C (human, UniProt P04070 43-461) (assay: Biacore, Fab).
T1 construct: also called human aPC; hAPC

Row | Binder | Kd [nM]
1 | B1 | 16
2 | B2 | 7.9
3 | B3 | 7.2
4 | B4 | 4.8

Each binder was assayed against T2, dog activated Protein C (dog, UniProt Q28278 43-456) (assay: Biacore, Fab).
T2 construct: mature; also called dog aPC; dAPC
T2 sequence (looked up): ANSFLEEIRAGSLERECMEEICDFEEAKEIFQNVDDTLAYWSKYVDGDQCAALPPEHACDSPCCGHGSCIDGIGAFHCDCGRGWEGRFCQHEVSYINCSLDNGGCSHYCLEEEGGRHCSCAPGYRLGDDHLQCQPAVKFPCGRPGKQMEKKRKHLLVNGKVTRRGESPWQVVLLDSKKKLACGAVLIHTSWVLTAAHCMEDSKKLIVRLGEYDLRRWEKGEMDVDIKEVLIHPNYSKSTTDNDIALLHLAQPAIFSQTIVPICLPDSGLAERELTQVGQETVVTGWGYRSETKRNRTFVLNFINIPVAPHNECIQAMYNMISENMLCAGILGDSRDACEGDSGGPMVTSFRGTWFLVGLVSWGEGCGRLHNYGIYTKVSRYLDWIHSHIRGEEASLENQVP

Row | Binder | Kd [nM]
5 | B5 | 1.3

These binders were tested against T1, human activated Protein C (assay: direct ELISA, aPC coated, hIgG1).

Row | Binder | EC50 [nM]
6 | B6 | 0.65
7 | B7 | 16.9
8 | B8 | 0.37
9 | B9 | 0.55

These binders were tested against T1, human activated Protein C (assay: direct ELISA, antigen coated, Fab).

Row | Binder | EC50 [nM]
10 | B1 | 10.6
11 | B2 | 10.3
12 | B3 | 10.3
13 | B4 | 8.6

Each binder was assayed against T2, dog activated Protein C (assay: direct ELISA, antigen coated, Fab).

Row | Binder | EC50 [nM]
14 | B5 | 6

Each binder was assayed against T3, dog Protein C (zymogen) (dog, UniProt Q28278 43-456) (assay: direct ELISA, dPC coated at 10 ug/ml, Fab at 20 nM, anti-human Fab-HRP, AmplexRed (RFU)).
T3 construct: mature; also called dog PC
T3 sequence (looked up): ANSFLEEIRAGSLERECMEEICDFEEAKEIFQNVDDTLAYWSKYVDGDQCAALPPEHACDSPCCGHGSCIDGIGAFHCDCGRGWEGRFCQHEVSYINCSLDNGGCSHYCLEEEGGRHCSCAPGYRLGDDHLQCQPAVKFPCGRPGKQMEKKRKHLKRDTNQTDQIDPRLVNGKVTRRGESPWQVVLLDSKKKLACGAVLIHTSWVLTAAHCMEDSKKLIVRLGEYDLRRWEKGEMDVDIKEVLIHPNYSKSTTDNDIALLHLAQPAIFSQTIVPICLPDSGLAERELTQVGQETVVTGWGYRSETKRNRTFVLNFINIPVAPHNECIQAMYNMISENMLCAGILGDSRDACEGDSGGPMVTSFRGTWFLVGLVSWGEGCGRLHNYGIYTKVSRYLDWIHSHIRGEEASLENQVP
Method: (§1) To determine the binding selectivity of these fabs, their binding activities to the proenzyme human PC, to thrombin (FIIa), and to the activated Factor II (FIIa, thrombin), Factor VII (FVIIa), Factor IX (FIXa), and Factor X (FXa) were also assessed by ELISA. Briefly, an ELISA plate was coated with human aPC at 1 ug/ml, mouse PC at 10 ug/ml, dog PC at 10 ug/ml, other coagulation factors (FIIa, FVIIa, FIXa, FXa) at 5-10 ug/ml. Anti-aPC Fabs were added to the wells at 20 nM (1 ug/ml). Bound Fabs were detected by the secondary antibody (anti-human Fab-HRP) followed by HRP substrate AmplexRed.

Row | Binder | binding result
15 | B5 | no binding (tested: 20 nM)
16 | B2 | no binding (tested: 20 nM)
17 | B3 | no binding (tested: 20 nM)
18 | B4 | no binding (tested: 20 nM)

These binders were tested against T4, mouse Protein C (zymogen) (mouse, UniProt P33587 42-460) (assay: direct ELISA, mPC coated at 10 ug/ml, Fab at 20 nM, anti-human Fab-HRP, AmplexRed (RFU)).
T4 construct: mature; also called mouse PC
T4 sequence (looked up): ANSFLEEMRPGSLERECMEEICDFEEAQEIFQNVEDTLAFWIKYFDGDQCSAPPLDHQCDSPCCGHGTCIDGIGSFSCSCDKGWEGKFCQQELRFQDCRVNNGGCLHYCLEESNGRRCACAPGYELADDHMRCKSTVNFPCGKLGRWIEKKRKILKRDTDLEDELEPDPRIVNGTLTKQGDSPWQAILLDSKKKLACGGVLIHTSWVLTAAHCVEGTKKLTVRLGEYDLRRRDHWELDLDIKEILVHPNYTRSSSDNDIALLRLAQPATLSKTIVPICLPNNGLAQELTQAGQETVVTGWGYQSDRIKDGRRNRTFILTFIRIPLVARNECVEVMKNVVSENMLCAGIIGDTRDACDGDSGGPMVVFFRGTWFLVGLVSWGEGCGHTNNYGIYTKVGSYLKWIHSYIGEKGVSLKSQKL
Method: as §1

Row | Binder | binding result
19 | B5 | no binding (tested: 20 nM)
20 | B1 | no binding (tested: 20 nM)
21 | B2 | no binding (tested: 20 nM)
22 | B3 | no binding (tested: 20 nM)
23 | B4 | no binding (tested: 20 nM)

Each binder was assayed against T5, human Protein C (zymogen) (human, UniProt P04070 43-461) (assay: direct ELISA, antigen coated at 1 ug/ml, IgG at 20 nM, anti-human IgG-HRP, AmplexRed (RFU)).
T5 construct: also called human PC; hPC

Row | Binder | binding result
24 | B6 | no binding (tested: 20 nM)
25 | B8 | no binding (tested: 20 nM)

What follows are binders tested against T2, dog activated Protein C in the same assay as above.

Row | Binder | binding result
26 | B6 | no binding (tested: 20 nM)
27 | B8 | no binding (tested: 20 nM)
28 | B9 | no binding (tested: 20 nM)

Each binder was assayed against T5, human Protein C (zymogen) (assay: direct ELISA, antigen coated at 100 ng/well, Fab at 20 nM (1 ug/ml), anti-human Fab-HRP, AmplexRed (RFU)).
Method: (§2) FIG. 3 depicts a graph characterizing anti-APC Fabs by direct ELISA. An ELISA plate was coated with human PC (hPC), human aPC (hAPC), dog aPC (dAPC), mouse aPC (mAPC) at 100 ng per well. Purified Fabs designate on the X-axis were added to the plate at 20 nM (1 ug/ml). Bound Fab was detected by the secondary antibody (anti-human Fab-HRP) followed by HRP substrate AmplexRed. The purified Fabs preferentially bind to human aPC and, with the exception of Fab R41C17, show little to no binding to human PC.
(§3) Antigens were coated directly on ELISA plates. Coating antigens included human PC (plasma-derived), human aPC (recombinant), dog aPC (plasma-derived), and mouse aPC (recombinant) at 100 ng/well in PBS/Ca buffer. After blocking the plate with 5% milk/PBS and washing the plate with PBS-Tween20, soluble Fabs (1 ug/ml, 20 nM) were added to the plate and incubated for 1 h at RT with shaking. Fab binding was detected with anti-human Fab (lambda) antibody-HRP and Amplex red as substrate. […] In contrast, R41C17 binds to both human APC and human PC. Also shown in FIG. 3 is cross-species reactivity of Fabs by ELISA.

Row | Binder | binding result
29 | B1 | no binding (tested: 20 nM)
30 | B2 | no binding (tested: 20 nM)
31 | B3 | no binding (tested: 20 nM)

What follows are binders tested against T2, dog activated Protein C in the same assay as above.
Method: as §2, §3

Row | Binder | binding result
32 | B2 | no binding (tested: 20 nM)
33 | B3 | no binding (tested: 20 nM)
34 | B4 | no binding (tested: 20 nM)
